Residues, ends and D or L forms follow the SMILES beside them.

Experiment [1] has as its target T1, CD40c-TRAF2 interaction (Homo sapiens, UniProt Q12933).
T1 construct: 1 and 2, respectively; made in house; host or cells: TRAF2(NC)-CA21: Spodoptera frugiperda Sf21 cells (baculovirus); CD40c: Escherichia coli BL21 (DE3)
T1 sequence (Q12933 with tags, fused parts or gaps): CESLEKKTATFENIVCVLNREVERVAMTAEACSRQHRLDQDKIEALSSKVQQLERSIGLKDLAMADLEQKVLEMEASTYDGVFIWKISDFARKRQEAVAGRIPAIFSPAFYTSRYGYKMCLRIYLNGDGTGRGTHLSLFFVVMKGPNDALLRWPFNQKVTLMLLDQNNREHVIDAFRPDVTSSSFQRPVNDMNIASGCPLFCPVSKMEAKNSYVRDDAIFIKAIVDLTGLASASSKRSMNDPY
Put plainly: Flashplate assay of CD40c-TRAF2 interaction (biotin-CD40c, TRAF2(NC)-CA21, 125I-CA21 Fab). The class given is binding. To be noted: 0.44 μg/ml biotin-CD40c; for IC50: 5 μg/ml TRAF2(NC)-CA21, peptide preincubated with TRAF2(NC)-CA21, read-out: IC50 for inhibition of CD40c-TRAF2 interaction. On the procedure: FIG. 2. Peptide antagonists of CD40c-TRAF2 interaction. Streptavidin flashplates were coated with 0.44 μg/ml biotin-CD40c. Stock solutions of peptides were prepared at 1 mg/ml in assay buffer and the pH verified. All peptides were assayed by preincubating with TRAF2(NC)-CA21 at a final peptide concentration of 0.5 mg/ml. Peptides were serially diluted 1.5-fold prior to addition of the TRAF2(NC)-CA21 (5 μg/ml final). Results are means of duplicate points except for the no inhibitor wells (none, closed circles) that are means i standard deviation of 11 replicates. A) Peptides AcPVQET-NH2 (closed squares), AcNTAAPVQET-NH2 (closed triangles), AcNTAAPVQETLH-NH2 (open triangles), CD30.B (AcDVMLSVEEEGKE-NH2, open circles); B) Peptides AcIQET-NH2 (closed squares), AcPIQET-NH2 (closed triangles), AcQEPQEINF-NH2 (open triangles), CD40c (open circles). The maximum signal in B) is less due to a difference in the decay of the ^125 I-Fab.
Significant signal was detectable as low as 0.054 μg/ml biotin-CD40c (FIG. 1). Standard conditions for the assay were selected to be 0.44 μg/ml CD40c and 5 μg/ml TRAF2(NC)-CA21. These conditions provided a signal/noise of eight to ten and a good dynamic range for the detection of inhibitors or enhancers. […] As noted by the manufacturer of the plates, low concentrations of detergents were strong inhibitors of the assay because they removed the streptavidin from the wells. […] The PVQET sequence in the CD40 cytoplasmic domain is essential for signaling through CD40 and is thought to be a core TRAF2 binding sequence. Devergne, O., et al (1996) Mol. Cell. Biol. 16, 7098-7108; Innui, W., et al (1990) Eur. J Immunol. 20, 1747-1753. Therefore several peptides around the PVQET sequence were tested for the ability to compete the CD40c-TRAF2 interaction (FIG. 2A). […] FIG. 2A.
Biotin-CD40c (0.5 μg/ml) was bound to streptavidin-coated 96-well scintillant-embedded plates (Flashplates, New England Nuclear, catalog #15112) overnight at 4° C. in D-PBS, 0.1 mM DTT, 0.01% BSA (100 μl/well). Plates were blocked for 2 hr at room temperature by the addition of Dulbecco's-PBS, 0.1 mM DTT, 1.0% BSA (100 μl/well). In a separate 96-well round bottom polypropylene plate peptide inhibitors were diluted in 40 mM HEPES, pH 7.5, 0.1 M NaCl, 1.0 mM MgCl2, 0.1 mM DTT, 0.01% BSA, and TRAF2(NC)-CA21 was added at a final concentration of 5 μg/ml. Plates were preincubated for 30 min at room temperature. After washing the biotin-CD40c-coated flashplate three times with D-PBS, 0.1 mM DTT, inhibitor-TRAF2(NC)-CA21 mixtures were transferred from the preincubation plate to the washed plate (100 μl/well). Alternatively, after washing the biotin-CD40c-coated flashplates, inhibitors were added directly without TRAF preincubation in a final volume of 50 μl 40 mM HEPES, pH 7.5, 0.1 M NaCl, 1.0 mM MgCl2, 0.1 mM DTT, 0.01% BSA, and 50 μl/well TRAF2(NC)-CA21 (10 μg/ml stock to make a final concentration of 5 μg/ml) was added. Flashplates were incubated for 1 hr at room temperature, washed three times with 40 MM HEPES, pH 7.5, 0.1 M NaCl, 1.0 mM MgCl2, 0.1 mM DTT, and 100 μl/well of [^125 I]CA21 Fab fragment at an adjusted specific activity of 0.08 μCi/well added in […] HEPES, pH […] 7.5, 0.1 M NaCl, 1.0 mM MgCl2, 0.1 mM DTT, 0.1% BSA. After a 1 hr incubation at room temperature plates were sealed and counted in a TopCount scintillation counter (Packard; one minute/well, 2 minute plate delay).

The target in experiment [2] is T2, TRAF2(NC)-CA21 (human).
T2 sequence: T1 sequence (Q12933 with tags, fused parts or gaps)
The experiment can be described thus: flashplate competition assay, inhibition of TRAF2(NC)-CA21 binding to biotin-CD40c.

The subject of experiment [3] is GST-CD40-TRAF interaction. To be noted: cited from earlier work.

For the molecule Ac-PIQET-NH2 [PIQET, AcPIQET-NH2], the IC50 (commonly the concentration at which inhibition is half-maximal) in experiment [1] is approximately 70 µM.

Regarding Ac-PVQET-NH2 [PVQET, AcPVQET-NH2], in experiment [1], the IC50 is approximately 90 µM. Besides, the “ability to inhibit (compete) CD40c-TRAF2 interaction, in words” value in experiment [1] (5 μg/ml TRAF2(NC)-CA21, peptides up to 0.5 mg/ml) was “most potent”.

As for “CD40c (nonbiotinylated CD40c polypeptide) (from UniProt P25942) (receptor)”, the IC50 in experiment [2] was 50 µM.

On to `CC[C@H](C)[C@H](NC(C)=O)C(=O)N[C@@H](CCC(N)=O)C(=O)N[C@@H](CCC(=O)O)C(=O)N[C@H](C(N)=O)[C@@H](C)O` [IQET, AcIQET-NH2] (Ac-IQET-NH2), for which, in experiment [1], the IC50 was approximately 140 µM.

B1: AcPIQET-NH2 (peptide)
peptide: Ac-PIQET-NH2
Consider B1, for which the IC50 in experiment [2] is 70 µM.

B2: CD40c: 62 amino acid human CD40 cytoplasmic domain (amino acids 216-277) expressed in E. coli (protein)
chain: KKVAKKPTNKAPHPKQEPQEINFPDDLPGSNTAAPVQETLHGCQPVTQEDGKESRISVQERQ
modifications: also: biotinylated via D-biotinoyl-aminocaproic acid NHS ester, one or two biotin per molecule, sites not given here
notes: 62 amino acid human CD40 cytoplasmic domain (amino acids 216-277) expressed in E. coli
For B2, the IC50 in experiment [1] is approximately 50 µM. For the same molecule, the “ability to compete for GST-CD40-TRAF interaction” value in experiment [3] is recorded as “weak ability to compete”.

B3: AcPVQET-NH2 (peptide)
peptide: Ac-PVQET-NH2
In turn, B3 registered an IC50 in experiment [2] of 90 µM.

B4: AcIQET-NH2 (peptide)
peptide: Ac-IQET-NH2
In experiment [2], B4 showed an IC50 of 140 µM and a fold decrease of inhibitory activity against PIQET of 2 fold.

Source of the values: US6143507A, “High throughput compatible assay for receptor-TRAF interactions” (Boehringer Ingelheim Pharmaceuticals, Inc., priority 1998, dated 2000).
